Patent publication US20120100152A1 (Sanofi, published 2012)
Substitutions are numbered along the chain they refer to. Numbers in names are those of the source. Blank lines part the entries; values can stand above or below the binder they belong to. Primed or numbered codes have the meaning given here. Ends that are not written are not given here. Biotin′ = not defined here

Experiments:
[1] = biological target: T1, MUT 1 alanine-scanning mutant hCD52 peptide (human); assay: Biacore T100 SPR, antibody immobilized, peptide injected at up to 500 nM;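 further: Amine-coupled antibody (10,000 RU), 25 °C in HBS-EP+ pH 7.4, 5 min association then 5 min dissociation, 1:1 fit with blank flow cell and 0 nM double-referencing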
T1 construct: Synthetic
T1 peptide: AQNDTSQTSSPSADC
From the text: (§1) The carboxymethyl dextran surface was activated using a 1:1 mixture of 0.1M N-hydroxysuccinimide (NHS) and 0.4M N-ethyl-N′-(3-dimethylaminopropyl)carbodiimide hydrochloride (EDC), allowing the surface to bind reactive amine groups on the antibodies. […] Following antibody immobilization, the reactive sensor chip surface was quenched using 1M ethanolamine hydrochloride/NaOH pH 8.5. One flow cell on each chip was a blank reference surface, and subsequent flow cells were immobilized with 10,000 RU of antibody.
(§2) Peptides were diluted into the assay running buffer, HBS-EP+ (10 mM HEPES, 150 mM NaCl, 0.05% P20 surfactant, 3 mM EDTA, pH 7.4). Duplicates of 100 nM samples were included. […] The T100 instrument sample chamber and assay temperatures were set to 4° C. and 25° C., respectively. The human CD52 peptide samples were injected for five minutes at a 50 μl/min flow rate to measure association, and washed in HBS-EP+ for five minutes at a 50 μl/min flow rate to measure dissociation. The antibody surface was stripped of any remaining bound peptide using a sixty second injection of 10 mM glycine-HCl pH 2.0 at a 50 μl/min flow rate. Analysis was performed using Biacore T100 Kinetics Evaluation software v2.0 (GE Healthcare). Data was fit to a 1:1 model with reference flow cell and 0 nM concentration subtraction (double-reference subtraction).

[2] = biological target: T2, MUT 2 alanine-scanning mutant hCD52 peptide (human); assay: as above
T2 construct: Synthetic
T2 peptide: GANDTSQTSSPSADC
From the text: as §1, §2

[3] = biological target: T3, MUT 3 alanine-scanning mutant hCD52 peptide (human); assay: as above
T3 construct: Synthetic
T3 peptide: GQADTSQTSSPSADC
From the text: as §1, §2

[4] = biological target: T4, MUT 5 alanine-scanning mutant hCD52 peptide (human); assay: as above
T4 construct: Synthetic
T4 peptide: GQNDASQTSSPSADC
From the text: as §1, §2

[5] = biological target: T5, MUT 6 alanine-scanning mutant hCD52 peptide (human); assay: as above
T5 construct: Synthetic
T5 peptide: GQNDTAQTSSPSADC
From the text: as §1, §2

[6] = biological target: T6, MUT 7 alanine-scanning mutant hCD52 peptide (human); assay: as above
T6 construct: Synthetic
T6 peptide: GQNDTSATSSPSADC
From the text: as §1, §2

[7] = biological target: T7, MUT 8 alanine-scanning mutant hCD52 peptide (human); assay: as above
T7 construct: Synthetic
T7 peptide: GQNDTSQASSPSADC
From the text: as §1, §2

[8] = biological target: T8, MUT 9 alanine-scanning mutant hCD52 peptide (human); assay: as above
T8 construct: Synthetic
T8 peptide: GQNDTSQTASPSADC
From the text: as §1, §2

[9] = biological target: T9, MUT 10 alanine-scanning mutant hCD52 peptide (human); assay: as above
T9 construct: Synthetic
T9 peptide: GQNDTSQTSAPSADC
From the text: as §1, §2

[10] = biological target: T10, MUT 12 alanine-scanning mutant hCD52 peptide (human); assay: as above
T10 construct: Synthetic
T10 peptide: GQNDTSQTSSPAADC
From the text: as §1, §2

[11] = biological target: T11, WT 1 wildtype human CD52 peptide (human, not fully specified (residue 15); printed as GQNDTSQTSSPSADK-Biotin); assay: as above
T11 construct: Synthetic
T11 peptide: GQNDTSQTSSPSADK-{Biotin′}
From the text: as §1, §2

human CD52 (wildtype) [12] = biological target: T12, human CD52 (wildtype) (human, not fully specified (residue 3); also: N-linked glycan, GPI anchor); assay: flow cytometry, CHO-CD52 cells, 12-point titration
T12 construct: also called huCD52; hCD52
T12 chain: GQNDTSQTSSPS
Method: The EC50 values of selected anti-CD52 antibodies were estimated using CHO cells engineered to express CD52. CHO-CD52 cells were trypsinized in 0.25% trypsin, collected, and rinsed with PBS/5% FBS. Cells were then deposited into round-bottom 96 well plates at 1E5 cells per well. Primary antibody staining was done with a 12 point serial dilution (1:2) of each anti-CD52 chimeric antibody starting at 50 μg/mL. […] Cells were washed 3 times in ice-cold PBS/5% FBS before and after each incubation. Cells were fixed with PBS containing 2% methanol-free paraformaldehyde and evaluated by flow cytometry.

human CD52 (wildtype) [13] = biological target: T12, human CD52 (wildtype); assay: flow cytometry, human CD4+ T cells from PBMC, FITC goat F(ab)2 anti-human Fc gamma secondary, GraphPad Prism fit (Example 29)
Method: (§3) The EC₅₀ values of chimeric and humanized anti-CD52 antibodies were estimated using CD4+ T cells isolated from healthy donor PBMCs obtained from commercial sources (Bioreclamation, NY, USA). CD4+ T cells were isolated by negative selection using an EasySep kit (Stem Cell Technologies). […] Briefly, human CD4+ T cells were isolated from 50 ml of peripheral blood from healthy volunteers (Bioreclamation), and huCD52 transgenic mouse CD4+ T cells were isolated from spleen tissue. Cells were rinsed with PBS/5% FBS and deposited into round-bottom 96 well plates at 1×10⁵ cells per well. Primary antibody staining was done with an 8 point serial dilution (1:3) of each anti-CD52 chimeric and humanized antibody starting at 100 μg/mL. […] Cells were washed 3 times in ice-cold PBS/5% FBS before and after each incubation. Cells were fixed with PBS containing 2% methanol-free paraformaldehyde and evaluated by flow cytometry. The flow cytometry data was analyzed using GraphPad Prism software to determine an EC₅₀ value with 95% confidence interval.

human CD52 (wildtype) [14] = biological target: T12, human CD52 (wildtype); assay: flow cytometry, huCD52 transgenic mouse CD4+ T cells, FITC goat F(ab)2 anti-human Fc gamma secondary, GraphPad Prism fit (Example 29)
Method: as §3

human CD52 (wildtype) [15] = biological target: T12, human CD52 (wildtype); assay: flow cytometry, CHO-CD52 cells
human CD52 (wildtype) [16] = biological target: T12, human CD52 (wildtype); assay: flow cytometry, CD4+ T cells, 8-point titration
Method: as §3

[17] = biological target: T13, MUT 4 alanine-scanning mutant hCD52 peptide (human); assay: Biacore T100 SPR, antibody immobilized, peptide injected at up to 500 nM;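 further: Amine-coupled antibody (10,000 RU), 25 °C in HBS-EP+ pH 7.4, 5 min association then 5 min dissociation, 1:1 fit with blank flow cell and 0 nM double-referencing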
T13 construct: Synthetic
T13 peptide: GQNATSQTSSPSADC
From the text: as §1, §2

[18] = biological target: T8, MUT 9 alanine-scanning mutant hCD52 …; assay: Biacore T100, antibody immobilised on a CM5 chip, peptide injected
From the text: as §1, §2

binding result [1]: binds
binding result [2]: binds
binding result [3]: binds
binding result [4]: binds
binding result [5]: binds
binding result [6]: binds
binding result [7]: binds
binding result [8]: binds
binding result [9]: binds
binding result [10]: binds
binding result [11]: binds
B1: humanized antibody 9D9-H16/K13 (antibody, V domains shown)
VH: EVQLLESGGGLVQPGGSLRLSCAASGFTFSDAWMDWVRQAPGKGLELVSEIRNKAKNHATYYAESVKGRFTISRDNSKNTLYLQMNSLRAEDTAVYYCTTLDSWGQGTTVTVSS
VL: DIVMTQTPLSLSVTPGQPASISCKSSQSLLDSDGKTYLNWLLQKPGQSPQRLIYLVSALDSGVPDRFSGSGSGTDFTLKISRVEAEDVGVYYCWQGTHFPWTFGQGTKLEIKR

EC50 (human CD52 (wildtype) [12]): 1.36 µg/mL
EC50 (human CD52 (wildtype) [13]): 21.9 nM
EC50 (human CD52 (wildtype) [14]): 25.1 nM
B2: Campath-1H® (alemtuzumab) (antibody, IgG1, V domains shown)
VH: QVQLQESGPGLVRPSQTLSLTCTVSGFTFTDFYMNWVRQPPGRGLEWIGFIRDKAKGYTTEYNPSVKGRVTMLVDTSKNQFSLRLSSVTAADTAVYYCAREGHTAAPFDYWGQGSLVTVSS
VL: DIQMTQSPSSLSASVGDRVTITCKASQNIDKYLNWYQQKPGKAPKLLIYNTNNLQTGVPSRFSGSGSGTDFTFTISSLQPEDIATYYCLQHISRPRTFGQGTKVEIKR
notes: Humanized IgG1/kappa; also called C1H; C-1H; copies: 2 + 2

EC50 (human CD52 (wildtype) [15]): 5 to 7 µg/mL
EC50 (human CD52 (wildtype) [12]): 6.05 µg/mL
B3: chimeric 9D9 antibody (antibody, human IgG1, V domains shown)
VH: EVKLEESGGGLVQPGGSMKLSCAASGFTFSDAWMDWVRQSPEKGLELTAEIRNKAKNHATYYAESVKGRFTISRDDSKSRVYLQMNSLRTEDTGIYYCTTLDSWGQGTSVTVSS
VL: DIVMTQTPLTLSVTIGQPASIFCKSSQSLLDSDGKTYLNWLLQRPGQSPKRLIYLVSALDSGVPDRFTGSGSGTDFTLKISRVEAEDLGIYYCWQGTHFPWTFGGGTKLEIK
notes: also called 9D9-Chi; 9D9-chimeric

EC50 (human CD52 (wildtype) [12]): 0.95 µg/mL
EC50 (human CD52 (wildtype) [13]): 22.4 nM
EC50 (human CD52 (wildtype) [14]): 34.4 nM
B4: chimeric 12G6 antibody (antibody, human IgG1, V domains shown)
VH: EVQLEESGGGLVQPGGSMKLSCVASGFPFSNYWMNWVRQSPEKGLEWVAQIRLKSNNYATHYAESVKGRFTIARDDSKSSVYLQMNNLRAEDTGIYYCTPIDYWGQGTTLTVSS
VL: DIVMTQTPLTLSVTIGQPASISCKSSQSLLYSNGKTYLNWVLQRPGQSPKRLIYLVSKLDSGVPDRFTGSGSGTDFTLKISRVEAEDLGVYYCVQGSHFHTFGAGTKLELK
notes: also called 12G6-Chi; 12G6-chimeric

EC50 (human CD52 (wildtype) [12]): 1.32 µg/mL
EC50 (human CD52 (wildtype) [13]): 25.9 nM
EC50 (human CD52 (wildtype) [14]): 30.8 nM
B5: chimeric 2C3 antibody (antibody, human IgG1, V domains shown)
VH: B4 VH with Q3K, P28T, S30N, N31T, A73S, S79N, I101V, Y103F
VL: DIVITQTPLTLSVTIGQPVSISCKSSQSLLYSNGKTYLNWLLQRPGQSPKRLIYLVSKLDSGVPDRFTGSGSGTDFTLKISRVEAEDLGVYYCVQGTHLHTFGAGTKLELK
notes: also called 2C3-Chi; 2C3-chimeric

EC50 (human CD52 (wildtype) [12]): 2.23 µg/mL
B6: humanized antibody 4B10-H1/K1 (antibody, V domains shown)
VH: EVQLVESGGGLVQPGGSLRLSCAASGFTFSDYYMSWVRQAPGKGLEWVGFIRNKANGYTTEYSASVKGRFTISRDDSKNSLYLQMNSLKTEDTAVYYCARYIWFDYWGQGTTVTVSS
VL: DIVMTQTPLSLSVTPGQPASISCRSSQSLVHTNGNTYLHWYLQKPGQSPQLLIYMVSNRFSGVPDRFSGSGSGTDFTLKISRVEAEDVGVYYCSQSAHVPPLTFGQGTRLEIKR
notes: also called 4B10-Humanized; 4B10 humanized (H1/K1)

EC50 (human CD52 (wildtype) [13]): 7.3 nM
EC50 (human CD52 (wildtype) [14]): 13.2 nM
B7: humanized antibody 12G6-SFD1/K11 (antibody, human IgG1, V domains shown)
VH: EVQLVESGGGLVQPGGSLRLSCAASGFPFSNYWMNWVRQAPGKGLEWVGQIRLKSNNYATHYAESVKGRFTISRDDSKNSLYLQMNSLKTEDTAVYYCTPIDYWGQGTTVTVSS
VL: DIVMTQTPLSLSVTPGQPASISCKSSQSLLYSNGKTYLNWVLQKPGQSPKRLIYLVSKLDSGVPDRFSGSGSGTDFTLKISRVEAEDVGVYYCVQGSHFHTFGQGTKLEIK
notes: also called 12G6 K11; 12G6 hu

fold lower EC50 than Campath-1H® (human CD52 (wildtype) [16]): 2 fold
binding result [1]: binds
binding result [2]: binds
binding result [3]: binds
binding result [17]: binds
binding result [4]: binds
binding result [5]: binds
binding result [8]: binds
binding result [9]: binds
binding result [10]: binds
binding result [11]: binds
EC50 (human CD52 (wildtype) [13]): 11 nM
EC50 (human CD52 (wildtype) [14]): 13.6 nM
B8: humanized antibody 2C3-SFD1/K12 (antibody, V domains shown)
VH: B7 VH with P28T, S30N, N31T, I101V, Y103F
VL: DIVMTQTPLSLSVTPGQPASISCKSSQSLLYSNGKTYLNWLLQKPGQSPQRLIYLVSKLDSGVPDRFSGSGSGTDFTLKISRVEAEDVGVYYCVQGTHLHTFGQGTRLEIKR
notes: also called 2C3 K12; 2C3 unmodified

binding result [1]: binds
binding result [2]: binds
binding result [3]: binds
binding result [17]: binds
binding result [4]: binds
binding result [5]: binds
binding result [9]: binds
binding result [10]: binds
binding result [11]: binds
binding result [18]: binds
EC50 (human CD52 (wildtype) [13]): 10.6 nM
B9: humanized antibody 12G6-SFD1/K12 (antibody, V domains shown)
VH: B7 VH
VL: B8 VL with L41V, T97S, L99F, R107K
notes: also called 12G6 K12; GLD52
